In publication PMC4197961 (Genes & Development, 2014):
Residue numbers refer to the chain shown, from its start. Values belong to the molecule of their own block, whether it stands above or below them. Ends that are not written are not given here. Me2 = dimethyl (dimethyl-lysine)

Assays:
[1] = target: truncated KDM2A construct (36–517) lacking the 1–35 and 365–449 peptide segments (UniProt Q9Y2K7)
KDM2A K323A/F324A = target: T1, KDM2A K323A/F324A (UniProt Q9Y2K7 1-1162, K323A | F324A); experiment: cell-based or functional assay
T1 sequence (looked up): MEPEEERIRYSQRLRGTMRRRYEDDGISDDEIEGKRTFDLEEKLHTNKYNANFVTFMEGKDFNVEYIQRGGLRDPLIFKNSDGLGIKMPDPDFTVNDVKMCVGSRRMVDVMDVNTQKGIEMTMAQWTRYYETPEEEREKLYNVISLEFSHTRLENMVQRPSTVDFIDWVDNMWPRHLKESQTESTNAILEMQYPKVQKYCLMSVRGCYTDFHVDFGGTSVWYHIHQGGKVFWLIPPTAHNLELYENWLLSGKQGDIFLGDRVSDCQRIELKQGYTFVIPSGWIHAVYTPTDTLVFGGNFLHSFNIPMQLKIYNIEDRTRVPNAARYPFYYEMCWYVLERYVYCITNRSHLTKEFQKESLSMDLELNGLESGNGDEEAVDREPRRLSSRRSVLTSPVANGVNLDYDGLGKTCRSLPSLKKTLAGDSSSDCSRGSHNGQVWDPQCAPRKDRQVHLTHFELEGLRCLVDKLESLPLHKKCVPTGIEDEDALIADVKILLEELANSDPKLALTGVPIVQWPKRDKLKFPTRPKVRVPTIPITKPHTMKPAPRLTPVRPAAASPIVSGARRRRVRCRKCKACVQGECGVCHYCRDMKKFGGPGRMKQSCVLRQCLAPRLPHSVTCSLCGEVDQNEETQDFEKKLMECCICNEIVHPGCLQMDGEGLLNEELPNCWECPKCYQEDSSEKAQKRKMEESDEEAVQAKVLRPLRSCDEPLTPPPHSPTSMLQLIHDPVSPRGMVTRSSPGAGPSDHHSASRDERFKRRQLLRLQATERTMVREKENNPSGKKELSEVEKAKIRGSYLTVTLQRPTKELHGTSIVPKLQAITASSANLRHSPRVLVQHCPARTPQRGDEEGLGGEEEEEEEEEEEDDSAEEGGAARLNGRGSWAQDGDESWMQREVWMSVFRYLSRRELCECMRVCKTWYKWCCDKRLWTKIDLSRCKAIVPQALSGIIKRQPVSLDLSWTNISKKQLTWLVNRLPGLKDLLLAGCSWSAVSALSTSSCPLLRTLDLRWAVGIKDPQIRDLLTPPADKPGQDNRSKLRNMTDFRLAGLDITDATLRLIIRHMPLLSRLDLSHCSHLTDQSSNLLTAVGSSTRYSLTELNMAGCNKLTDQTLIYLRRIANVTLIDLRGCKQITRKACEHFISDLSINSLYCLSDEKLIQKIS

KDM2A N186A = target: T2, KDM2A N186A (UniProt Q9Y2K7 1-1162, N186A); experiment: cell-based or functional assay
T2 sequence (looked up): T1 sequence (looked up) with N186A, A323K, A324F

demethylation of the mutant H3K36me2 peptide by wild-type KDM2A in vitro [1]: < 2 fold
Molecule: H3K36me2 peptide Y41A

H3K36me2 demethylation activity in vitro, fluorescence-based assay (KDM2A K323A/F324A): ~3 fold reduction
H3K36me2 demethylation activity in vitro, fluorescence-based assay (KDM2A N186A): ~3 fold reduction
B1: H3(A29–Y41)K36me2 peptide (peptide)
peptide: APATGGVK(Me2)KPHRY
